Six molecules from patent publication US20040248211A1, “ICAM-related protein” (priority 1992, published 2004) can be followed below.

What all share (format): cell-based, human
Test [1] deals with J77.50.3 cell lines. The test can be described thus: ICR-1.1 induced aggregation of J77.50.3 lines. To be noted: for ICR-1.1 induced aggregation: ICR-1.1 10 μg/ml, 1 and 24 hours; for Percent Aggregation: repeated experiments, Vector 17. How it is done: One of these monoclonal antibodies (ICR-1.1) was used to induce aggregation of the J77.50.3 cell lines expressing either full length ICAM-R (haFL) or carboxy terminal variants of ICAM-R. ICR-1.1 was added to 200,000 cells at 10 μg/ml in 96 well plates and incubated 37° C. At 1 and 24 hours after incubation the wells were visually screened for aggregates.

Test [2] relates to J77.50.3 cell lines. The test is described as follows: Cell spreading on ICR-1.1 coated plastic. As to conditions: 20 minutes at 37° C. The procedure:
To ascertain additional functional consequences of ICAM-R carboxyl terminal deletions, the Jurkat cell lines expressing the. ICAM-R variants described above were tested for the ability to adhere and spread on antibody coated plastic or to undergo antibody-mediated aggregation. Bacterial petri plates were coated with 50 μl drops of ICR-1.1 or w6/32 (10 μg/ml) (anti-MHC class I isotype matched control monoclonal antibody) in PBS for 120 minutes at 37° C. The plastic was rinsed twice prior to spotting 50 μl drops of J77.50.3 cell lines. Duplicate cell lines expressing these proteins at equivalent levels were tested. After 20 minutes at 37° C. the plate was flooded with 2% glutaraldehyde in PBS and incubated for 30 minutes to fix adherent cells. Fixed cells were rinsed twice with PBS and scored visually for the ability to flatten and spread. […] Weyrich et al., J. Clin. Invest., 95: 2297-2303 (1995) recently described the effect of a ICR-1.1 coated plastic surface on normal monocytes from peripheral blood. After two hours, these cells flattened down and spread with a similar overall morphology to that seen with the haFL expressing J77.50.3 cell line.

A further test concerns J77.50.3 cells. The test is described as follows: IL-2 induction in J77.50.3 lines expressing ICAM-R variants. To be noted: for IL-2 Induction (Fold Stimulation): repeated experiments, Vector 0.52. The procedure: This dose of antibody alone provides minimal signalling for IL-2 release. The OKT3 treatment was removed and replaced with buffer alone or anti-ICAM-R (ICR-1.1) (10 ug/ml in PBS-D) and incubated at 37° C. for at least 2 hours. Monoclonal antibody coating was done in replicates of two or more wells and pooled to provide sufficient quantities of conditioned media for ELISA and/or bioassay. Two hundred fifty thousand Jurkat cells or transfectants thereof, were placed into antibody coated wells or buffer coated negative control wells in 0.1 ml of RPMI complete medium. Following incubation of about 16-24 hrs at 37° C. in a humidified atmosphere containing 5% CO2, the medium was transferred to a fresh 96 well round bottom plate, spun to pellet cells carried over and transferred to a fresh plate. Samples were frozen and stored at −70° C. IL-2 ELISAs were performed using commercially available kits (Biosource Intl. Co., Carmarille, Calif.) by making serial dilutions of the samples.
Experiments were performed using two independently isolated cell lines for each plasmid construct or the vector alone. Stable lines expressing similar levels of ICAM-R variants, as determined by indirect flow cytometry, were chosen for functional studies. Cells were costimulated with plate immobilized monoclonal antibodies ICR-1.1 and OKT3, and IL-2 release from the lines was quantitated by ELISA as previously described in Example 25C. Results were expressed as fold increase of IL-2 released from cells plated onto co-immobilized ICR-1.1 (10 μg/ml) plus OKt3 (1 μg/ml) divided by release from OKT3 ([…]) alone. The full length ICAM-R protein (haFL) gave 3.1 fold induction. The deletions gave the following fold inductions: haCTΔ505 induction was 1.5 fold, haCTΔ493 induction was 1.3 fold, haCTΔ484 was 0.8 fold. Vector control induction was 0.7 fold. […] In addition, removal of the residues 505-518 leads to the most significant reduction in co-stimulatory responsiveness. This implies that residues 505-518 play a relatively larger role in the response as compared to residues 484-505.

B1: Tyr479Phe: ICAM-R cytoplasmic domain point mutant (protein, UniProt P32942 30-547, looked up, variant Y479F)
Intercellular adhesion …: QEFLLRVEPQNPVLSAGGSLFVNCSTDCPSSEKIALETSLSKELVASGMGWAAFNLSNVTGNSRILCSVYCNGSQITGSSNITVYRLPERVELAPLPPWQPVGQNFTLRCQVEDGSPRTSLTVVLLRWEEELSRQPAVEEPAEVTATVLASRDDHGAPFSCRTELDMQPQGLGLFVNTSAPRQLRTFVLPVTPPRLVAPRFLEVETSWPVDCTLDGLFPASEAQVYLALGDQMLNATVMNHGDTLTATATATARADQEGAREIVCNVTLGGERREARENLTVFSFLGPIVNLSEPTAHEGSTVTVSCMAGARVQVTLDGVPAAAPGQPAQLQLNATESDDGRSFFCSATLEVDGEFLHRNSSVQLRVLYGPKIDRATCPQHLKWKDKTRHVLQCQARGNPYPELRCLKEGSSREVPVGIPFFVNVTHNGTYQCQASSSRGKYTLVVVMDIEAGSSHFVPVFVAVLLTLGVVTIVLALMFVFREHQRSGSYHVREESTYLPLTSMQPTEAMGEEPSRAE
In the case of B1, in the test on J77.50.3 cell lines [1], the ICR-1.1 induced aggregation entry is recorded as “aggregation competent”. In the test with J77.50.3 cell lines [2], the “spreading on ICR-1.1 coated plastic” value is “spread onto the ICR-1.1 coated plastic surface”. Moreover, the “IL-2 Induction (Fold Stimulation)” value with J77.50.3 cells is 4.9 Fold.

B2: Ser515Ala: ICAM-R cytoplasmic domain point mutant (protein, UniProt P32942 30-547, looked up, variant S515A)
Intercellular adhesion …: QEFLLRVEPQNPVLSAGGSLFVNCSTDCPSSEKIALETSLSKELVASGMGWAAFNLSNVTGNSRILCSVYCNGSQITGSSNITVYRLPERVELAPLPPWQPVGQNFTLRCQVEDGSPRTSLTVVLLRWEEELSRQPAVEEPAEVTATVLASRDDHGAPFSCRTELDMQPQGLGLFVNTSAPRQLRTFVLPVTPPRLVAPRFLEVETSWPVDCTLDGLFPASEAQVYLALGDQMLNATVMNHGDTLTATATATARADQEGAREIVCNVTLGGERREARENLTVFSFLGPIVNLSEPTAHEGSTVTVSCMAGARVQVTLDGVPAAAPGQPAQLQLNATESDDGRSFFCSATLEVDGEFLHRNSSVQLRVLYGPKIDRATCPQHLKWKDKTRHVLQCQARGNPYPELRCLKEGSSREVPVGIPFFVNVTHNGTYQCQASSSRGKYTLVVVMDIEAGSSHFVPVFVAVLLTLGVVTIVLALMYVFREHQRSGSYHVREESTYLPLTSMQPTEAMGEEPARAE
Consider B2, for which the “Percent Aggregation” value in the test on J77.50.3 cell lines [1] is 15%. The “IL-2 Induction (Fold Stimulation)” value in the test with J77.50.3 cells came out at 2.1 Fold.

B3: Ser503Ala: ICAM-R cytoplasmic domain point mutant (protein, UniProt P32942 30-547, looked up, variant S503A)
Intercellular adhesion …: QEFLLRVEPQNPVLSAGGSLFVNCSTDCPSSEKIALETSLSKELVASGMGWAAFNLSNVTGNSRILCSVYCNGSQITGSSNITVYRLPERVELAPLPPWQPVGQNFTLRCQVEDGSPRTSLTVVLLRWEEELSRQPAVEEPAEVTATVLASRDDHGAPFSCRTELDMQPQGLGLFVNTSAPRQLRTFVLPVTPPRLVAPRFLEVETSWPVDCTLDGLFPASEAQVYLALGDQMLNATVMNHGDTLTATATATARADQEGAREIVCNVTLGGERREARENLTVFSFLGPIVNLSEPTAHEGSTVTVSCMAGARVQVTLDGVPAAAPGQPAQLQLNATESDDGRSFFCSATLEVDGEFLHRNSSVQLRVLYGPKIDRATCPQHLKWKDKTRHVLQCQARGNPYPELRCLKEGSSREVPVGIPFFVNVTHNGTYQCQASSSRGKYTLVVVMDIEAGSSHFVPVFVAVLLTLGVVTIVLALMYVFREHQRSGSYHVREESTYLPLTAMQPTEAMGEEPSRAE
For the molecule B3, the “Percent Aggregation” value in the test with J77.50.3 cell lines [1] came out at 64%. In the test on J77.50.3 cells, the “IL-2 Induction (Fold Stimulation)” value worked out at 1.0 Fold.

B4: Ser489Ala: ICAM-R cytoplasmic domain point mutant (protein, UniProt P32942 30-547, looked up, variant S489A)
Intercellular adhesion …: QEFLLRVEPQNPVLSAGGSLFVNCSTDCPSSEKIALETSLSKELVASGMGWAAFNLSNVTGNSRILCSVYCNGSQITGSSNITVYRLPERVELAPLPPWQPVGQNFTLRCQVEDGSPRTSLTVVLLRWEEELSRQPAVEEPAEVTATVLASRDDHGAPFSCRTELDMQPQGLGLFVNTSAPRQLRTFVLPVTPPRLVAPRFLEVETSWPVDCTLDGLFPASEAQVYLALGDQMLNATVMNHGDTLTATATATARADQEGAREIVCNVTLGGERREARENLTVFSFLGPIVNLSEPTAHEGSTVTVSCMAGARVQVTLDGVPAAAPGQPAQLQLNATESDDGRSFFCSATLEVDGEFLHRNSSVQLRVLYGPKIDRATCPQHLKWKDKTRHVLQCQARGNPYPELRCLKEGSSREVPVGIPFFVNVTHNGTYQCQASSSRGKYTLVVVMDIEAGSSHFVPVFVAVLLTLGVVTIVLALMYVFREHQRSGAYHVREESTYLPLTSMQPTEAMGEEPSRAE
For B4, the “Percent Aggregation” value with J77.50.3 cell lines [1] is 25%. In addition, the “IL-2 Induction (Fold Stimulation)” value in the test on J77.50.3 cells was 2.9 Fold.

B5: Ser487Ala: ICAM-R cytoplasmic domain point mutant (protein, UniProt P32942 30-547, looked up, variant S487A)
Intercellular adhesion …: QEFLLRVEPQNPVLSAGGSLFVNCSTDCPSSEKIALETSLSKELVASGMGWAAFNLSNVTGNSRILCSVYCNGSQITGSSNITVYRLPERVELAPLPPWQPVGQNFTLRCQVEDGSPRTSLTVVLLRWEEELSRQPAVEEPAEVTATVLASRDDHGAPFSCRTELDMQPQGLGLFVNTSAPRQLRTFVLPVTPPRLVAPRFLEVETSWPVDCTLDGLFPASEAQVYLALGDQMLNATVMNHGDTLTATATATARADQEGAREIVCNVTLGGERREARENLTVFSFLGPIVNLSEPTAHEGSTVTVSCMAGARVQVTLDGVPAAAPGQPAQLQLNATESDDGRSFFCSATLEVDGEFLHRNSSVQLRVLYGPKIDRATCPQHLKWKDKTRHVLQCQARGNPYPELRCLKEGSSREVPVGIPFFVNVTHNGTYQCQASSSRGKYTLVVVMDIEAGSSHFVPVFVAVLLTLGVVTIVLALMYVFREHQRAGSYHVREESTYLPLTSMQPTEAMGEEPSRAE
Consider B5, for which, in the test with J77.50.3 cell lines [1], the “Percent Aggregation” value turned out to be 61%. In the test on J77.50.3 cells, the “IL-2 Induction (Fold Stimulation)” value was determined as 2.0 Fold.

B6: haFL: HA-tagged full length ICAM-R expressed in J77.50.3 cells (protein, UniProt P32942 1-547, looked up)
chain: MATMVPSVLWPRACWTLLVCCLLTPGVQGQEFLLRVEPQNPVLSAGGSLFVNCSTDCPSSEKIALETSLSKELVASGMGWAAFNLSNVTGNSRILCSVYCNGSQITGSSNITVYRLPERVELAPLPPWQPVGQNFTLRCQVEDGSPRTSLTVVLLRWEEELSRQPAVEEPAEVTATVLASRDDHGAPFSCRTELDMQPQGLGLFVNTSAPRQLRTFVLPVTPPRLVAPRFLEVETSWPVDCTLDGLFPASEAQVYLALGDQMLNATVMNHGDTLTATATATARADQEGAREIVCNVTLGGERREARENLTVFSFLGPIVNLSEPTAHEGSTVTVSCMAGARVQVTLDGVPAAAPGQPAQLQLNATESDDGRSFFCSATLEVDGEFLHRNSSVQLRVLYGPKIDRATCPQHLKWKDKTRHVLQCQARGNPYPELRCLKEGSSREVPVGIPFFVNVTHNGTYQCQASSSRGKYTLVVVMDIEAGSSHFVPVFVAVLLTLGVVTIVLALMYVFREHQRSGSYHVREESTYLPLTSMQPTEAMGEEPSRAE
modifications: full-length HA tag
notes: HA-tagged full length ICAM-R expressed in J77.50.3 cells
On to B6, for which, in the test with J77.50.3 cell lines [1], the ICR-1.1 induced aggregation entry is recorded as “aggregation competent” and the “Percent Aggregation” value is listed as 55%. The “spreading on ICR-1.1 coated plastic” value with J77.50.3 cell lines [2] is listed as “spread onto the ICR-1.1 coated plastic surface”. Moreover, the “IL-2 Induction (Fold Stimulation)” value with J77.50.3 cells worked out at 5.4 Fold. Further, the “fold increase of IL-2 released (ICR-1.1 plus OKT3 divided by OKT3 alone)” value in the test on J77.50.3 cells (vector control 0.7 fold) is recorded as 3.1 fold.
